The assay addresses T1, soluble TNFR1 receptor domain (sTNFR1) (UniProt P19438 30-211, fluorescently labeled with Alexa Fluor 633 or Alexa Fluor 488 in the MST only).
T1 construct: TNF receptor TNFR1, soluble extracellular domain (sTNFR1); also called soluble TNFR1 site; source: recombinant, obtained as described in [10], purified
T1 sequence (looked up): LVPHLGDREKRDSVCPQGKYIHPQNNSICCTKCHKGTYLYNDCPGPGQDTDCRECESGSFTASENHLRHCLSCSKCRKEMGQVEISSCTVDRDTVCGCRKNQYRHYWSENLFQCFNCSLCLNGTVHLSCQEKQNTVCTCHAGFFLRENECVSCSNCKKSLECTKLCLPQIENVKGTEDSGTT
As to the kind of experiment: MST; sTNFR1 or Hsp70 labeled with Alexa Fluor 633 or 488 (200 nM), 20 min in the dark at room temperature with 16 concentrations of each compound; Monolith NT 115, IR laser power 10%; apparent Kd; triplicate. Conditions: both partners purified.

B1: Tag7 protein (PGLYRP1) (natural protein, UniProt O75594 22-196, looked up)
chain: QETEDPACCSPIVPRNEWKALASECAQHLSLPLRYVVVSHTAGSSCNTPASCQQQARNVQHYHMKTLGWCDVGYNFLIGEDGLVYEGRGWNFTGAHSGHLWNPMSIGISFMGNYMDRVPTPQAIRAAQGLLACGVAQGALRSNYVLKGHRDVQRTLSPGNQLYHLIQNWPHYRSP
notes: Tag7 (PGLYRP1), innate immunity protein; also called full-sized Tag7 protein; source: recombinant, obtained as described in [10]
As to B1, the Kd amounted to 43.2 nM.

B2: peptide 17.1A (peptide)
peptide: HRDVQRT
notes: Not biotinylated; used in the MST and the cytotoxicity tests; source: synthetic peptide (Fmoc, HPLC purified)
Consider B2, for which the Kd was found to be 5.44 nM.

The values above are taken from article PMC10379010, “Short Peptides of Innate Immunity Protein Tag7 (PGLYRP1) Selectively Induce Inhibition or Activation of Tumor Cell Death via TNF Receptor” (International Journal of Molecular Sciences, 2023).
